Like-named read-outs stand apart in the source and are kept apart here.
What was measured:
[1] = target: T1, human PD-L1 on MDA-MB-231 cells (human, UniProt Q9NZQ7 19-290); assay: FACS, MDA-MB-231 cells (human PD-L1)
T1 construct: whole, on cells
Protocol: This example is intended to investigate the in vitro binding activity of OX40×TAA bispecific antibodies obtained in Example 9 to tumor-associated antigens (TAAs). […] Briefly, those cells were digested, resuspended in a complete medium, and washed with PBS, and the cell density was adjusted to 1×10⁶ cells/ml with PBS. The cells were seeded in a 96-well V-bottom plate (Corning, #3894) at 100 μL/well, and centrifuged, and then the supernatant was discarded. Then, the test antibodies diluted in a 3-fold gradient were added at 100 μL/well. The cells were incubated at 4° C. for 1 h away from light. Thereafter, the cells in each well were rinsed twice with 100 μL of pre-cooled PBS, and centrifuged at 500 g at 4° C. for 5 min, and then the supernatant was discarded. […] The plate was incubated away from light at 4° C. for 30 min. The cells in each well were rinsed twice with 100 μL of pre-cooled PBS, and centrifuged at 500 g at 4° C. for 5 min, and then the supernatant was discarded. Finally, the cells in each well were resuspended in 200 μL of pre-cooled PBS, and the fluorescence signal values were read using NovoCyte flow cytometer (ACEA Biosciences).

[2] = target: T2, human OX40 on cells (CHO-K1/hu OX40) (human, UniProt P43489 29-277); assay: cell-based or functional assay
T2 sequence (looked up): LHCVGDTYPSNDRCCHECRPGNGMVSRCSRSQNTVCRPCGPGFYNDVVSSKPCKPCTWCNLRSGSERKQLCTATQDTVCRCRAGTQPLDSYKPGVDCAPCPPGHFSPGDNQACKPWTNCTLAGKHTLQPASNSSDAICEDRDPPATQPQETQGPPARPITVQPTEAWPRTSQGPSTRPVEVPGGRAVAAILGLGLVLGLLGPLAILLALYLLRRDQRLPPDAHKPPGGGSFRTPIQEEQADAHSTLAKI

[3] = target: T2, human OX40 on cells (CHO-K1/hu OX40); assay: FACS, CHO-K1/hu OX40 cells
Procedure, shortened: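 Binding of anti-human OX40 HCAb antibodies measured by flow cytometry on CHO-K1 cells stably overexpressing human OX40. Cells incubated with 3-fold serially diluted antibodies 1 h at 4 °C in the dark, washed, then secondary staining 30 min at 4 °C; fluorescence read by FACS.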

[4] = target: T3, human OX40 protein (Acro biosystem, #OX0-H5224) (human, UniProt P43489 29-216); assay: ELISA, coated human OX40 protein
T3 construct: Bought recombinant protein
T3 sequence (looked up): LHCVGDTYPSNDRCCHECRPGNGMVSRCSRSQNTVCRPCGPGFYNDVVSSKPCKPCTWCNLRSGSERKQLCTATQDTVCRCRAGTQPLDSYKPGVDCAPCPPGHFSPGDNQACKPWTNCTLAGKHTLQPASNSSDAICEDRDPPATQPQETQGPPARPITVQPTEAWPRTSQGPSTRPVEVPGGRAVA
Protocol: This example is intended to investigate the in vitro binding activity of the anti-OX40 HCAb monoclonal antibodies prepared in Example 1 to human and cynomolgus monkey OX40 proteins. The antibody binding assay at the protein level was performed using a human OX40 protein (Acro biosystem, #OX0-H5224) and a cynomolgus monkey OX40 protein (Novoprotein, #CB17). Briefly, a 384-well plate (PerkinElmer, #6007509) was coated with 1 μg/mL human OX40 protein and a cynomolgus monkey OX40 protein dissolved in PBS at 20 μL/well, and incubated at 4° C. overnight. The next day, the 384-well plate was washed three times with PBS containing 0.05% Tween (MEDICAGO, #09-9410-100), and blocked with PBS containing 2% milk (Bio-Rad, #170-6404) at 37° C. for 1 h. […] The plate was added with a stop buffer (BBI life sciences, #E661006-0200) at 20 μL/well, and read for OD₄₅₀₋₆₅₀ values using a plate reader (Molecular Devices, model: SpectraMax Plus). The values were analyzed with Graphad 8.0 and plotted.

[5] = target: T4, cynomolgus monkey OX40 protein (Novoprotein, #CB17) (cynomolgus monkey); assay: ELISA, coated cyno OX40 protein
T4 construct: Bought recombinant protein; also called cyno OX40

[6] = target: T3, human OX40 protein (Acro biosystem, …); assay: ELISA, coated human OX40 protein; remark: listed apart in the source
[7] = target: T2, human OX40 on cells (CHO-K1/hu OX40); assay: FACS, blocking of biotin-human OX40L on CHO-K1/hu OX40 cells
[8] = target: T2, human OX40 on cells (CHO-K1/hu OX40); assay: FACS, CHO-K1/hu OX40 cells; remark: listed apart in the source
Protocol: This example is intended to investigate the in vitro binding activity of OX40×TAA bispecific antibodies obtained in Example 9 to human OX40. The antibody binding assay at the cellular level was performed using a CHO-K1 cell strain overexpressing human OX40 (CHO-K1/hu OX40). Briefly, CHO-K1/hu OX40 cells were digested, resuspended in an F12K complete medium, and washed with PBS, and the cell density was adjusted to 1×10⁶ cells/ml with PBS. The cells were seeded in a 96-well V-bottom plate (Corning, #3894) at 100 μL/well, followed by the addition of test antibodies diluted in a 3-fold gradient at concentrations that were 2 times the final concentrations at 100 μL/well. The cells were incubated at 4° C. for 1 h away from light. Thereafter, the cells in each well were rinsed twice with 100 μL of pre-cooled PBS, and centrifuged at 500 g at 4° C. for 5 min, and then the supernatant was discarded. […] The plate was incubated away from light at 4° C. for 30 min. The cells in each well were rinsed twice with 100 μL of pre-cooled PBS, and centrifuged at 500 g at 4° C. for 5 min, and then the supernatant was discarded. Finally, the cells in each well were resuspended in 200 μL of pre-cooled PBS, and the fluorescence signal values were read using NovoCyte flow cytometer (ACEA Biosciences).

T1 sequence (Q9NZQ7 19-290): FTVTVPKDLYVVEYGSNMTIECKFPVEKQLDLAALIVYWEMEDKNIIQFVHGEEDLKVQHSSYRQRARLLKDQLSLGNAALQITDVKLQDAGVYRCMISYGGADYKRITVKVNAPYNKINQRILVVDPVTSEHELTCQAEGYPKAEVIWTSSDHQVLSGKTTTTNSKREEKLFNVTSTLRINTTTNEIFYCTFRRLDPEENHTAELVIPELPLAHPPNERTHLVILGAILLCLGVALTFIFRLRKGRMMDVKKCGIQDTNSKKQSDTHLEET

| Binder | EC50 [1] | EC50, HEK293/OX40/NF-kb luciferase reporter [2] | Maximum fluorescence signal value, HEK293/OX40/NF-kb luciferase reporter [2] | EC50 [3] | Maximum MFI [3] | EC50 [4] | EC50 [5] | Maximum OD [5] | EC50 [6] | Maximum OD [6] | IC50 [7] | Maximum inhibition rate (%) [7] | EC50 [8] | Maximum MFI [8] |
| --- | --- | --- | --- | --- | --- | --- | --- | --- | --- | --- | --- | --- | --- | --- |
| PR000265 (antibody, human IgG1, kappa, N297A, V domains shown, H2L2 parental antibody against PD-L1; also called anti-PD-L1 monoclonal antibody; H2L2 antibody) VH: EVQLVESGGGLVQPGGSLRLSCAASGFTFSSYWMSWVRQAPGKGLEWVANIKQEGSEKYYVDSVKGRFTISRDNAKNSLYLQMNSLRAEDTAVYYCARDRAVAGAFDIWGQGTMVTVSS VL: DIQMTQSPSTLSASVGDRVTVTCRASQSIYIWLAWYQQKPGKAPNLLIYKASSLETGVPSRFSGSGSGTEFTLTISSLQPDDFATYYCQQYYGSSRTFGQGTKVEIKR | 0.605 nM | – | – | – | – | – | – | – | – | – | – | – | – | – |
| PR002055 (antibody, human IgG1, V domains shown, no light chain; also called anti-OX40 HCAb antibody) VH: EVQLLESGGGLVQPGGSLRLSCAASGLTFSSYAMSWVRQAPGKGLEWISAISGGGGSTYYADSVRGRFTISRDNSKNTLYLQMNSLRAEDTAVYYCANGMTGSTDVDYWGQGTLVTVSS | – | 4.66 nM | 141000 luminescence | 3.18 nM | 2240 MFI | < 0.05 nM | 0.0452 nM | 1.74 OD | 0.0268 nM | 1.41 OD | 59.9 nM | 19% | – | – |
| PR003789 (bispecific antibody, human IgG1, kappa, L234A L235A, IgG-VH tetravalent symmetric structure: PR000265 IgG (anti-PD-L1) with the VH of PR002067 at the C-terminus via linker H1_15; human IgG1 Fc (L234A, L235A, P329G); also called PD-L1xOX40 bispecific antibody) light: DIQMTQSPSTLSASVGDRVTVTCRASQSIYIWLAWYQQKPGKAPNLLIYKASSLETGVPSRFSGSGSGTEFTLTISSLQPDDFATYYCQQYYGSSRTFGQGTKVEIKRTVAAPSVFIFPPSDEQLKSGTASVVCLLNNFYPREAKVQWKVDNALQSGNSQESVTEQDSKDSTYSLSSTLTLSKADYEKHKVYACEVTHQGLSSPVTKSFNRGEC heavy: EVQLVESGGGLVQPGGSLRLSCAASGFTFSSYWMSWVRQAPGKGLEWVANIKQEGSEKYYVDSVKGRFTISRDNAKNSLYLQMNSLRAEDTAVYYCARDRAVAGAFDIWGQGTMVTVSSASTKGPSVFPLAPSSKSTSGGTAALGCLVKDYFPEPVTVSWNSGALTSGVHTFPAVLQSSGLYSLSSVVTVPSSSLGTQTYICNVNHKPSNTKVDKKVEPKSCDKTHTCPPCPAPEAAGGPSVFLFPPKPKDTLMISRTPEVTCVVVDVSHEDPEVKFNWYVDGVEVHNAKTKPREEQYNSTYRVVSVLTVLHQDWLNGKEYKCKVSNKALGAPIEKTISKAKGQPREPQVYTLPPSREEMTKNQVSLTCLVKGFYPSDIAVEWESNGQPENNYKTTPPVLDSDGSFFLYSKLTVDKSRWQQGNVFSCSVMHEALHNHYTQKSLSLSPGAEPKSSDKTHTPPPPPEVQLLESGGGLVQPGGSLRLSCAASGFTFSSYAMSWVRQAPGKGLEWVSAISGRGGSTFYADSVRGRFTISRDNSKNTLYLQMNSLRAEDTAMYYCVDGTTGTTDVDYWGQGTLVTVSS | 1.04 nM | – | – | – | – | – | – | – | – | – | – | – | 3.98 nM | 287000 MFI |

Source: US20230295324A1 (published 2023)
